The assay addresses eIF4E (UniProt P63074). Kind of assay: anti-eIF4E IP, anti-histidine blot. The settings on record: reference: wild type Hsp27; sites S15,S78,S82.

For “Hsp27 (from UniProt P04792) 3A (S15A/S78A/S82A)”, the “binding against the reference” value is “weaker”.

The record behind these values is article PMC5652782.
